In patent publication CN1709911A:

Tests used:
[1] = biological target: Raji肿瘤细胞核抗原 (Raji肿瘤细胞核提取物 / 固定Raji细胞); experiment: flow cytometry on paraformaldehyde-fixed Raji cells; 5 ul of 1 mg/ml, anti-human IgG-FITC; third of three values
[2] = biological target: Raji肿瘤细胞核抗原 (Raji肿瘤细胞核提取物 / 固定Raji细胞); experiment: flow cytometry on paraformaldehyde-fixed Raji cells; 5 ul of 1 mg/ml, anti-human IgG-FITC; first of three values
[3] = biological target: Raji肿瘤细胞核抗原 (Raji肿瘤细胞核提取物 / 固定Raji细胞); experiment: antigen binding activity, table 2; this molecule is the reference; method not described
[4] = biological target: Raji肿瘤细胞核抗原 (Raji肿瘤细胞核提取物 / 固定Raji细胞); experiment: flow cytometry on paraformaldehyde-fixed Raji cells; 5 ul of 1 mg/ml, anti-human IgG-FITC; second of three values
[5] = biological target: Raji肿瘤细胞核抗原 (Raji肿瘤细胞核提取物 / 固定Raji细胞); experiment: antigen binding activity, table 2, against rhTNT-IL2 (IgG1) as control; method not described

Substance	融合蛋白抗原结合活性 [5] [%]	further results
rhTNT-IL2融合蛋白 (重组人肿瘤坏死治疗单抗-白细胞介素2融合蛋白, IgG1, 连接肽AAAGGGS, 全长IL2) (antibody)		特异结合活性 [1]: 98.6%; 特异结合活性 [2]: 98.2%; 融合蛋白抗原结合活性 [3]: 100%; 特异结合活性 [4]: 98.3%
肿瘤坏死治疗单抗-白细胞介素2融合蛋白, IgG1重链恒定区, IL2(Q22-C58) (antibody)	100	
肿瘤坏死治疗单抗-白细胞介素2融合蛋白, IgG2重链恒定区, 全长IL2 (antibody)	100	
肿瘤坏死治疗单抗-白细胞介素2融合蛋白, IgG4重链恒定区, IL2(Q22-C58) (antibody)	100	

Second part, led by results:

融合蛋白抗原结合活性 [5] [%]	Substance	further results
100	肿瘤坏死治疗单抗-白细胞介素2融合蛋白, IgG2重链恒定区, IL2(Q22-C58) (antibody)	
100	肿瘤坏死治疗单抗-白细胞介素2融合蛋白, IgG3重链恒定区, IL2(Q22-C58) (antibody)	
100	肿瘤坏死治疗单抗-白细胞介素2融合蛋白, IgG3重链恒定区, 全长IL2 (antibody)	
100	肿瘤坏死治疗单抗-白细胞介素2融合蛋白, IgG4重链恒定区, 全长IL2 (antibody)	
